Reference: patent US20180155451A1 (published 2018)

T1: FcγRIIa H (human, UniProt P12318 34-217)
T1 construct: extracellular domain; also called FcgRIIa H; FcγRIIa type H; not shown: His tag attached to the C terminus
T1 sequence (looked up): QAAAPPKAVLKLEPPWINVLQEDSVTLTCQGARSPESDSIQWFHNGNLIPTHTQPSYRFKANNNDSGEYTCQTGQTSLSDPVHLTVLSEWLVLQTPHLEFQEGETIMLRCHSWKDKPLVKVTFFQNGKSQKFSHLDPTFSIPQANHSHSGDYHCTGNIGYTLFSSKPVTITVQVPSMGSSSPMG

T2: FcγRIIb (human, UniProt P31994 43-217)
T2 construct: extracellular domain; also called FcgRIIb; 2b; not shown: His tag attached to the C terminus
T2 sequence (looked up): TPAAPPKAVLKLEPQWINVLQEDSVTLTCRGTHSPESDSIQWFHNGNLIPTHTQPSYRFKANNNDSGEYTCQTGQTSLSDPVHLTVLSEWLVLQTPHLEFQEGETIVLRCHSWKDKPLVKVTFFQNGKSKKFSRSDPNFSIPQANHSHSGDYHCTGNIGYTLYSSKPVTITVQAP

B1: GpH7-A5/GpH7-B3 variant G236_08L/GpL16-k0 (antibody, human IgG1, kappa)
heavy 1: not shown
heavy 2: not shown
light: DIVMTQSPLSLPVTPGEPASISCQASESLVHSNRNTYLHWYLQKPGQSPQLLIYKVSNRFSGVPDRFSGSGSGTDFTLKISRVEAEDVGVYYCSQNTHVPPTFGQGTKVEIERTVAAPSVFIFPPSDEQLKSGTASVVCLLNNFYPREAKVQWKVDNALQSGNSQESVTEQDSKDSTYSLSSTLTLSKADYEKHKVYACEVTHQGLSSPVTKSFNRGEC
notes: Heterodimerized IgG1, mutation in the GpH7-B3 chain only; also called He Ab
B2: GpH7-A5/GpH7-B3 variant L234_05P/GpL16-k0 (antibody, human IgG1, kappa)
heavy 1: not shown
heavy 2: not shown
light: B1 light
notes: as for B1
B3: GpH7-A5/GpH7-B3 variant G236_19Q/GpL16-k0 (antibody, human IgG1, kappa)
heavy 1: not shown
heavy 2: not shown
light: B1 light
notes: as for B1
B4: GpH7-A5/GpH7-B3 variant S239_11K/GpL16-k0 (antibody, human IgG1, kappa)
heavy 1: not shown
heavy 2: not shown
light: B1 light
notes: as for B1
B5: GpH7-A5/GpH7-B3 variant L235_13S/GpL16-k0 (antibody, human IgG1, kappa)
heavy 1: not shown
heavy 2: not shown
light: B1 light
notes: as for B1
B6: GpH7-A5/GpH7-B3 variant L235_14T/GpL16-k0 (antibody, human IgG1, kappa)
heavy 1: not shown
heavy 2: not shown
light: B1 light
notes: as for B1
B7: GpH7-A5/GpH7-B3 variant G236_13S/GpL16-k0 (antibody, human IgG1, kappa)
heavy 1: not shown
heavy 2: not shown
light: B1 light
notes: as for B1
B8: GpH7-A5/GpH7-B3 variant S239_16H/GpL16-k0 (antibody, human IgG1, kappa)
heavy 1: not shown
heavy 2: not shown
light: B1 light
notes: as for B1
B9: GpH7-A5/GpH7-B3 variant L234_19Q/GpL16-k0 (antibody, human IgG1, kappa)
heavy 1: not shown
heavy 2: not shown
light: B1 light
notes: as for B1
B10: GpH7-A5/GpH7-B3 variant L234_15Y/GpL16-k0 (antibody, human IgG1, kappa)
heavy 1: not shown
heavy 2: not shown
light: B1 light
notes: as for B1
B11: GpH7-A5/GpH7-B3 variant L235_11K/GpL16-k0 (antibody, human IgG1, kappa)
heavy 1: not shown
heavy 2: not shown
light: B1 light
notes: as for B1
B12: GpH7-A5/GpH7-B3 variant L234_16H/GpL16-k0 (antibody, human IgG1, kappa)
heavy 1: not shown
heavy 2: not shown
light: B1 light
notes: as for B1
B13: GpH7-A5/GpH7-B3 variant L234_01G/GpL16-k0 (antibody, human IgG1, kappa)
heavy 1: not shown
heavy 2: not shown
light: B1 light
notes: as for B1
B14: GpH7-A5/GpH7-B3 variant S239_12R/GpL16-k0 (antibody, human IgG1, kappa)
heavy 1: not shown
heavy 2: not shown
light: B1 light
notes: as for B1
B15: GpH7-A5/GpH7-B3 variant L235_19Q/GpL16-k0 (antibody, human IgG1, kappa)
heavy 1: not shown
heavy 2: not shown
light: B1 light
notes: as for B1
B16: GpH7-A5/GpH7-B3 variant L234_13S/GpL16-k0 (antibody, human IgG1, kappa)
heavy 1: not shown
heavy 2: not shown
light: B1 light
notes: as for B1
B17: GpH7-A5/GpH7-B3 variant L235_12R/GpL16-k0 (antibody, human IgG1, kappa)
heavy 1: not shown
heavy 2: not shown
light: B1 light
notes: He Ab: alteration in one H chain only; also called He Ab
B18: GpH7-A5/GpH7-B3 variant L235_03V/GpL16-k0 (antibody, human IgG1, kappa)
heavy 1: not shown
heavy 2: not shown
light: B1 light
notes: as for B1
B19: GpH7-A5/GpH7-B3 variant G236_15Y/GpL16-k0 (antibody, human IgG1, kappa)
heavy 1: not shown
heavy 2: not shown
light: B1 light
notes: as for B1
B20: GpH7-A5/GpH7-B3 variant L235_18N/GpL16-k0 (antibody, human IgG1, kappa)
heavy 1: not shown
heavy 2: not shown
light: B1 light
notes: as for B1
B21: GpH7-A5/GpH7-B3 variant L234_14T/GpL16-k0 (antibody, human IgG1, kappa)
heavy 1: not shown
heavy 2: not shown
light: B1 light
notes: as for B1
B22: GpH7-A5/GpH7-B3 variant L235_01G/GpL16-k0 (antibody, human IgG1, kappa)
heavy 1: not shown
heavy 2: not shown
light: B1 light
notes: as for B1
B23: GpH7-A5/GpH7-B3 variant G236_20W/GpL16-k0 (antibody, human IgG1, kappa)
heavy 1: not shown
heavy 2: not shown
light: B1 light
notes: as for B1
B24: GpH7-A5/GpH7-B3 variant G236_16H/GpL16-k0 (antibody, human IgG1, kappa)
heavy 1: not shown
heavy 2: not shown
light: B1 light
notes: as for B1
B25: GpH7-A5/GpH7-B3 variant G236_14T/GpL16-k0 (antibody, human IgG1, kappa)
heavy 1: not shown
heavy 2: not shown
light: B1 light
notes: as for B1
B26: GpH7-A5/GpH7-B3 variant L234_04F/GpL16-k0 (antibody, human IgG1, kappa)
heavy 1: not shown
heavy 2: not shown
light: B1 light
notes: as for B1
B27: GpH7-A5/GpH7-B3 variant L234_11K/GpL16-k0 (antibody, human IgG1, kappa)
heavy 1: not shown
heavy 2: not shown
light: B1 light
notes: as for B1
B28: GpH7-A5/GpH7-B3 variant G236_12R/GpL16-k0 (antibody, human IgG1, kappa)
heavy 1: not shown
heavy 2: not shown
light: B1 light
notes: as for B1
B29: GpH7-A5/GpH7-B3 variant L234_02A/GpL16-k0 (antibody, human IgG1, kappa)
heavy 1: not shown
heavy 2: not shown
light: B1 light
notes: as for B1
B30: GpH7-A5/GpH7-B3 variant L234_12R/GpL16-k0 (antibody, human IgG1, kappa)
heavy 1: not shown
heavy 2: not shown
light: B1 light
notes: as for B1

Key:
[1] = biological target: T1, FcγRIIa H; experiment: SPR (Biacore), antibody captured, FcγR as analyte; binding relative to GpH7-A5/GpH7-B3/GpL16-k0 = 100
[2] = biological target: T2, FcγRIIb; experiment: as above
[3] = biological target: T1, FcγRIIa H; experiment: ratio of He/Con_2aH to He/Con_2b (relative SPR binding to FcγRIIa H over FcγRIIb)
[4] = biological target: T3, FcγRIIIa extracellular domain with C-terminal His tag (human, UniProt P08637 17-208); experiment: SPR, relative to GpH7-A5/GpH7-B3/GpL16-k0
T3 construct: extracellular domain; also called 3a; FcgRIIIa
T3 sequence (P08637 17-208): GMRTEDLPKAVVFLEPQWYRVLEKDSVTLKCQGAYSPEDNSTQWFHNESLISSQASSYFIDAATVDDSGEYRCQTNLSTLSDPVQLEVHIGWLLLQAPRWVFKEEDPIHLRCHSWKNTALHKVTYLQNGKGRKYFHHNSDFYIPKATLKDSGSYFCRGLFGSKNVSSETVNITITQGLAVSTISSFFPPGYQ
Description: The heterodimerized antibodies He Abs in which one of the H chains was introduced with an alteration were assayed for their binding activities to each activating FcγR and inhibitory FcγR according to the method described in Example 4. […] The activating FcγRs in FIGS. 26, 27, 28, and 29 are FcγRIa, FcγRIIa (R), FcγRIIa (H), and FcγRIIIa, respectively.
Analysis of interaction between objective antibody and the FcγR was carried out using Biacore T100 (GE Healthcare). HBS-EP+ (GE Healthcare) was used as the running buffer, and the measurement temperature was set to 25° C. Chips produced by immobilizing the antigen peptide by the amine coupling method to a Series S Sencor Chip CM5 (GE Healthcare), or alternatively, chips produced by allowing preliminarily biotinylated antigen peptides to interact with and immobilize onto a Series S Sensor Chip SA (certified) (GE Healthcare) were used. Antibodies of interest were captured onto an antigen peptide-immobilized chip, and allowed to interact to each FcγR diluted with running buffer. To regenerate and repeatedly use the chip, the antibodies captured on the chip were washed off by reacting 10 mM glycine-HCl, pH 1.5.

[5] = biological target: T3, FcγRIIIa extracellular domain with …; experiment: SPR; He/Con_3a over He/Con_2b (FcγRIIb)

Binder	He/Con_2aH [1] [control = 100]	He/Con_2b [2] [control = 100]	He_2aH/2b (IIaH/IIb) [3]	He/Con_3a [4] [control=100]	He_3a/2b (IIIa/IIb) [5] [ratio]
B1	75.8	26.8	2.83		
B2	93.5	72.9	1.28		
B3	89.1	46.6	1.91		
B4	48.1	24.7	1.94		
B5	66.1	48.2	1.37		
B6	71.5	46.8	1.53		
B7	135	96.7	1.39		
B8	59.4	49.4	1.2		
B9	79.2	60.3	1.31		
B10	120	96.3	1.25		
B11	22.7	6.3	3.61		
B12	87.3	59.4	1.47		
B13	75.6	50.7	1.49		
B14	57.1	39.1	1.46		
B15	62	42.6	1.45		
B16	80.4	59.3	1.36		
B17				41.2	4.29
B18	85.3	66.4	1.28		
B19	136	39.5	3.45		
B20	66.1	54.9	1.2		
B21	78.1	62.5	1.25		
B22	54.1	35.4	1.53		
B23	147	58.2	2.52		
B24	98.2	27.9	3.51		
B25	103	57.8	1.79		
B26	120	99.8	1.2		
B27	40.8	16.2	2.52		
B28	34.2	6.8	5.04		
B29	81	64.9	1.25		
B30	47.7	18.9	2.53		
